Source: US20170306033A1 (Amgen, published 2017)

T1: human PAC1 receptor (human, UniProt P41586 21-468)
T1 sequence: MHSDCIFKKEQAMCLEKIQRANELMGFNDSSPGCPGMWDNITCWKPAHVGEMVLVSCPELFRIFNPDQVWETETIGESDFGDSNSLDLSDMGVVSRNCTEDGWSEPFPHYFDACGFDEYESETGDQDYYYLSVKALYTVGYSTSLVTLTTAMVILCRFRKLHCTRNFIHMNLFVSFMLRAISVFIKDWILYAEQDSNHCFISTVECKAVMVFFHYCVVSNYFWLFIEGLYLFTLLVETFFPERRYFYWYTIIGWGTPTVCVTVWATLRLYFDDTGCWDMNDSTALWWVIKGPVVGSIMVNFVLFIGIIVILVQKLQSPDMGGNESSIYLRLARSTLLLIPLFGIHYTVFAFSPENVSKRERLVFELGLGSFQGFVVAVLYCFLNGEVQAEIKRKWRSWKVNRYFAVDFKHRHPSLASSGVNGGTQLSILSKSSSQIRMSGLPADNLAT


Assays:
human CGRP receptor = human CGRP receptor (human, UniProt Q16602 23-461; O60894 27-148); assay: cell-based or functional assay
Sequence of human CGRP receptor (Q16602 23-461 limits assumed, chain 1 of 2): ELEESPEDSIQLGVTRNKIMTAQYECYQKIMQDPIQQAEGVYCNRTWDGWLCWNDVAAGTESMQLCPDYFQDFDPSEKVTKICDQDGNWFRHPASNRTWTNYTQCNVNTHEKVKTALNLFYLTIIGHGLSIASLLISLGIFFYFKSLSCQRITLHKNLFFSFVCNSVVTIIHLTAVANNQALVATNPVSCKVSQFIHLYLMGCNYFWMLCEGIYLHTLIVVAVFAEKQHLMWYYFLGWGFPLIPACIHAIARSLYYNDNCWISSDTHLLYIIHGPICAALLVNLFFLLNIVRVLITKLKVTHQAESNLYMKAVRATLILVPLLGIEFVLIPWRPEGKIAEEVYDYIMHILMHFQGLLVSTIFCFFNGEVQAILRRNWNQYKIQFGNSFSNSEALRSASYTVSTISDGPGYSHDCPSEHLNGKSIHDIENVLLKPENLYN
Sequence of human CGRP receptor (O60894 27-148 limits assumed, chain 2 of 2): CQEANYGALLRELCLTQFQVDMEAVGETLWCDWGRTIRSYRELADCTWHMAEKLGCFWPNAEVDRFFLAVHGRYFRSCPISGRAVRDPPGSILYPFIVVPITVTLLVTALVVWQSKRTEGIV

human PAC1 receptor = target: T1, human PAC1 receptor; assay: cell-based or functional assay

Binder | % inhibition of human CGRPR (human CGRP receptor) [%] | % inhibition of human PAC1 (human PAC1 receptor) [%]
iPS:326634 (bispecific antibody, human IgG2, kappa, lambda) light 1: DIQLTQSPSFLSASVGDRVTITCRASQSIGRSLHWYQQKPGKAPKLLIKYASQSLSGVPSRFSGSGSGTEFTLTISSLQPEDFATYYCHQSSRLPFTFGPGTKVDIKRTVAAPSVFIFPPSDEQLKSGTASVVCLLNNFYPREAKVQWKVDNALQSGNSQESVTEQDSKDSTYSLESTLTLSKADYEKHKVYACEVTHQGLSSPVTKSFNRGEC heavy 1: QVQLVESGAEVVKPGASVKVSCKASGFTFSRFAMHWVRQAPGQGLEWMGVISYDGGNKYYAESVKGRVTMTRDTSTSTLYMELSSLRSEDTAVYYCARGYDVLTGYPDYWGQGTLVTVSSASTKGPSVFPLAPCSRSTSESTAALGCLVKDYFPEPVTVSWNSGALTSGVHTFPAVLQSSGLYSLKSVVTVPSSNFGTQTYTCNVDHKPSNTKVDKTVERKCCVECPPCPAPPVAGPSVFLFPPKPKDTLMISRTPEVTCVVVDVSHEDPEVQFNWYVDGVEVHNAKTKPREEQFNSTFRVVSVLTVVHQDWLNGKEYKCKVSNKGLPAPIEKTISKTKGQPREPQVYTLPPSREEMTKNQVSLTCLVDGFYPSDIAVEWESNGQPENNYDTTPPMLDSDGSFFLYSDLTVDKSRWQQGNVFSCSVMHEALHNHYTQKSLSLSPGK light 2: not shown heavy 2: not shown | 66 | 43
iPS:327694 (bispecific antibody, human IgG1, kappa, lambda, N297G) light 1: DIQMTQSPSSLSASVGDRITITCRASQSISRYLNWYQQKPGKAPKLLIYAASSLQSGIPSRFSGSGSGTDFTLTINSLQPEDFATYFCQQSYSPPFTFGEGTKVDIKRTVAAPSVFIFPPSDEQLKSGTASVVCLLNNFYPREAKVQWKVDNALQSGNSQESVTEQDSKDSTYSLESTLTLSKADYEKHKVYACEVTHQGLSSPVTKSFNRGEC heavy 1: not shown light 2: QSVLTQPPSVSAAPGQKVTISCSGSSSNIGNNYVSWYQQLPGTAPKLLIYDNNKRPSGIPDRFSGSKSGTSTTLGITGLQTGDEADYYCGTWDSRLSAVVFGKGTKLTVLGQPKANPTVTLFPPSSEELQANKATLVCLISDFYPGAVTVAWKADGSPVKAGVETTKPSKQSNNKYAAKSYLSLTPEQWKSHRSYSCQVTHEGSTVEKTVAPTECS heavy 2: QVQLVESGGGVVQPGRSLRLSCAASGFTFSSFGMHWVRQAPGKELEWVAVISFDGSIKYSVDSVKGRFTISRDNSKNTLFLQMNSLRAEDTAVYYCARDRLNYYESSGYYHYKYYGMAVWGQGTTVTVSSASTKGPSVFPLAPSSKSTSGGTAALGCLVKDYFPEPVTVSWNSGALTSGVHTFPAVLQSSGLYSLESVVTVPSSSLGTQTYICNVNHKPSNTKVDKKVEPKSCDKTHTCPPCPAPELLGGPSVFLFPPKPKDTLMISRTPEVTCVVVDVSHEDPEVKFNWYVDGVEVHNAKTKPCEEQYGSTYRCVSVLTVLHQDWLNGKEYKCKVSNKALPAPIEKTISKAKGQPREPQVYTLPPSRKEMTKNQVSLTCLVKGFYPSDIAVEWESNGQPENNYKTTPPVLKSDGSFFLYSKLTVDKSRWQQGNVFSCSVMHEALHNHYTQKSLSLSPGK | 87 | 75
iPS:327705 (bispecific antibody, human IgG1, kappa, lambda, N297G) light 1: DIQLTQSPSFLSASVGDRVTITCRASQSIGRSLHWYQQKPGKAPKLLIKYASQSLSGVPSRFSGSGSGTEFTLTISSLQPEDFATYYCHQSSRLPFTFGPGTKVDIKRTVAAPSVFIFPPSDEQLKSGTASVVCLLNNFYPREAKVQWKVDNALQSGNSQESVTEQDSKDSTYSLESTLTLSKADYEKHKVYACEVTHQGLSSPVTKSFNRGEC heavy 1: not shown light 2: QSVLTQPPSVSAAPGQKVTISCSGSSSNIGNNYVSWYQQLPGTAPKLLIYDNNKRPSGIPDRFSGSKSGTSATLGITGLQTGDEADYYCGTWDSRLSAVVFGGGTKLTVLGQPKANPTVTLFPPSSEELQANKATLVCLISDFYPGAVTVAWKADGSPVKAGVETTKPSKQSNNKYAAKSYLSLTPEQWKSHRSYSCQVTHEGSTVEKTVAPTECS heavy 2: QVQLVESGGGVVQPGRSLRLSCAASGFTFSSFGMHWVRQAPGKGLEWVAVISFDGSIKYSVDSVKGRFTISRDNSKNTLFLQMNSLRAEDTAVYYCARDRLNYYDSSGYYHYKYYGMAVWGQGTTVTVSSASTKGPSVFPLAPSSKSTSGGTAALGCLVKDYFPEPVTVSWNSGALTSGVHTFPAVLQSSGLYSLESVVTVPSSSLGTQTYICNVNHKPSNTKVDKKVEPKSCDKTHTCPPCPAPELLGGPSVFLFPPKPKDTLMISRTPEVTCVVVDVSHEDPEVKFNWYVDGVEVHNAKTKPCEEQYGSTYRCVSVLTVLHQDWLNGKEYKCKVSNKALPAPIEKTISKAKGQPREPQVYTLPPSRKEMTKNQVSLTCLVKGFYPSDIAVEWESNGQPENNYKTTPPVLKSDGSFFLYSKLTVDKSRWQQGNVFSCSVMHEALHNHYTQKSLSLSPGK | 88 | 56
iPS:327696 (bispecific antibody, human IgG1, kappa, lambda, N297G) light 1: not shown heavy 1: not shown light 2: QSVLTQPPSVSAAPGQKVTISCSGSSSNIGNNYVSWYQQLPGTAPKLLIYDNNKRPSGIPDRFSGSKSGTSTTLGITGLQTGDEADYYCGTWDSRLSAVVFGKGTKLTVLGQPKANPTVTLFPPSSEELQANKATLVCLISDFYPGAVTVAWKADGSPVKAGVETTKPSKQSNNKYAAKSYLSLTPEQWKSHRSYSCQVTHEGSTVEKTVAPTECS heavy 2: QVQLVESGGGVVQPGRSLRLSCAASGFTFSSFGMHWVRQAPGKELEWVAVISFDGSIKYSVDSVKGRFTISRDNSKNTLFLQMNSLRAEDTAVYYCARDRLNYYESSGYYHYKYYGMAVWGQGTTVTVSSASTKGPSVFPLAPSSKSTSGGTAALGCLVKDYFPEPVTVSWNSGALTSGVHTFPAVLQSSGLYSLESVVTVPSSSLGTQTYICNVNHKPSNTKVDKKVEPKSCDKTHTCPPCPAPELLGGPSVFLFPPKPKDTLMISRTPEVTCVVVDVSHEDPEVKFNWYVDGVEVHNAKTKPCEEQYGSTYRCVSVLTVLHQDWLNGKEYKCKVSNKALPAPIEKTISKAKGQPREPQVYTLPPSRKEMTKNQVSLTCLVKGFYPSDIAVEWESNGQPENNYKTTPPVLKSDGSFFLYSKLTVDKSRWQQGNVFSCSVMHEALHNHYTQKSLSLSPGK | 87 | 10
iPS:327706 (bispecific antibody, human IgG1, kappa, lambda, N297G) light 1: EIVLTQSPATLSLSPGERATLSCRASQSVGRSLHWYQQKPGQAPRLLIKYASQSLSGIPARFSGSGSGTDFTLTISSLEPEDFAVYYCHQSSRLPFTFGPGTKVDIKRTVAAPSVFIFPPSDEQLKSGTASVVCLLNNFYPREAKVQWKVDNALQSGNSQESVTEQDSKDSTYSLESTLTLSKADYEKHKVYACEVTHQGLSSPVTKSFNRGEC heavy 1: not shown light 2: QSVLTQPPSVSAAPGQKVTISCSGSSSNIGNNYVSWYQQLPGTAPKLLIYDNNKRPSGIPDRFSGSKSGTSATLGITGLQTGDEADYYCGTWDSRLSAVVFGGGTKLTVLGQPKANPTVTLFPPSSEELQANKATLVCLISDFYPGAVTVAWKADGSPVKAGVETTKPSKQSNNKYAAKSYLSLTPEQWKSHRSYSCQVTHEGSTVEKTVAPTECS heavy 2: QVQLVESGGGVVQPGRSLRLSCAASGFTFSSFGMHWVRQAPGKGLEWVAVISFDGSIKYSVDSVKGRFTISRDNSKNTLFLQMNSLRAEDTAVYYCARDRLNYYDSSGYYHYKYYGMAVWGQGTTVTVSSASTKGPSVFPLAPSSKSTSGGTAALGCLVKDYFPEPVTVSWNSGALTSGVHTFPAVLQSSGLYSLESVVTVPSSSLGTQTYICNVNHKPSNTKVDKKVEPKSCDKTHTCPPCPAPELLGGPSVFLFPPKPKDTLMISRTPEVTCVVVDVSHEDPEVKFNWYVDGVEVHNAKTKPCEEQYGSTYRCVSVLTVLHQDWLNGKEYKCKVSNKALPAPIEKTISKAKGQPREPQVYTLPPSRKEMTKNQVSLTCLVKGFYPSDIAVEWESNGQPENNYKTTPPVLKSDGSFFLYSKLTVDKSRWQQGNVFSCSVMHEALHNHYTQKSLSLSPGK | 87 | 103
iPS:327697 (bispecific antibody, human IgG1, kappa, lambda, N297G) light 1: DIQLTQSPSFLSASVGDRVTITCRASQSIGRSLHWYQQKPGKAPKLLIKYASQSLSGVPSRFSGSGSGTEFTLTISSLQPEDFATYYCHQSSRLPFTFGEGTKVDIKRTVAAPSVFIFPPSDEQLKSGTASVVCLLNNFYPREAKVQWKVDNALQSGNSQESVTEQDSKDSTYSLESTLTLSKADYEKHKVYACEVTHQGLSSPVTKSFNRGEC heavy 1: not shown light 2: QSVLTQPPSVSAAPGQKVTISCSGSSSNIGNNYVSWYQQLPGTAPKLLIYDNNKRPSGIPDRFSGSKSGTSTTLGITGLQTGDEADYYCGTWDSRLSAVVFGKGTKLTVLGQPKANPTVTLFPPSSEELQANKATLVCLISDFYPGAVTVAWKADGSPVKAGVETTKPSKQSNNKYAAKSYLSLTPEQWKSHRSYSCQVTHEGSTVEKTVAPTECS heavy 2: QVQLVESGGGVVQPGRSLRLSCAASGFTFSSFGMHWVRQAPGKELEWVAVISFDGSIKYSVDSVKGRFTISRDNSKNTLFLQMNSLRAEDTAVYYCARDRLNYYESSGYYHYKYYGMAVWGQGTTVTVSSASTKGPSVFPLAPSSKSTSGGTAALGCLVKDYFPEPVTVSWNSGALTSGVHTFPAVLQSSGLYSLESVVTVPSSSLGTQTYICNVNHKPSNTKVDKKVEPKSCDKTHTCPPCPAPELLGGPSVFLFPPKPKDTLMISRTPEVTCVVVDVSHEDPEVKFNWYVDGVEVHNAKTKPCEEQYGSTYRCVSVLTVLHQDWLNGKEYKCKVSNKALPAPIEKTISKAKGQPREPQVYTLPPSRKEMTKNQVSLTCLVKGFYPSDIAVEWESNGQPENNYKTTPPVLKSDGSFFLYSKLTVDKSRWQQGNVFSCSVMHEALHNHYTQKSLSLSPGK | 88 | 39
